Data taken from paper PMC2266796, “The Assembly of the Plasmodial PLP Synthase Complex Follows a Defined Course” (PLoS ONE, 2008).
Substitutions are numbered along the chain they refer to. Numbers in names are those of the source.

B1: PfPdx1 wild-type (Plasmodium falciparum Pdx1, Strep-tagged) (enzyme, P. falciparum, UniProt C6KT50 1-301, looked up)
chain: MENHKDDAVLLKHGWCEMLKGGVIMDVKSVEQAKIAEEAGAIGVMVLENIPSELRNKEGVARSVDPSKVEEIKKCVSINVLAKVRIGHFVEAQILEELKIDMIDESEVLTIADEMHHIDKHKFKTPFVCGCTNLGEALRRISEGASMIRTKGEAGTGNIIEAIKHIRTVNNEIKYLCSLSDSEVYHFAKKINAPIDLVLLTKKLKRLPVVNFAAGGVATPADAAMCMQLGMDGVFVGSGIFESENPRKMAASIVSAVSNFNNPKILLDVSMNLGKAMCGSTRVSDKWKNKNEEHTKFLTPQ
notes: molecular mass used for light scattering 34.2 kDa; also called PfPdx1 WT; plasmodial Pdx1; source: E. coli BLR (DE3); purified (Strep-Tactin) for light scattering; cell homogenate for co-purification; copies: 12
B2: PfPdx1 K151A (enzyme)
chain: B1 chain with K151A
notes: Pdx1 of Plasmodium falciparum in pASK-IBA3, point mutant; source: E. coli BLR (DE3); purified (Strep-Tactin) for light scattering; cell homogenate for co-purification
B3: PfPdx1 DKK (D26A/K83A/K151A) triple mutant (enzyme)
chain: B1 chain with D26A, K83A, K151A
notes: Pdx1 of Plasmodium falciparum in pASK-IBA3, triple mutant; Hexamer without additive; about half dodecamer with 10 mM glutamine; also called DKK to AAA (D26/K83/K151); DKK mutant; source: E. coli BLR (DE3); purified (Strep-Tactin) for light scattering; cell homogenate for co-purification
B4: PfPdx2HIS wild-type (Plasmodium falciparum Pdx2 with C-terminal 6x His-tag) (enzyme)
chain: MSEITIGVLSLQGDFEPHINHFIKLQIPSLNIIQVRNVHDLGLCDGLVIPGGESTTVRRCCAYENDTLYNALVHFIHVLKKPIWGTCAGCILLSKNVENIKLYSNFGNKFSFGGLDITICRNFYGSQNDSFICSLNIISDSSAFKKDLTAACIRAPYIREILSDEVKVLATFSHESYGPNIIAAVEQNNCLGTVFHPELLPHTAFQQYFYEKVKNYKYS

Assays:
[1] = target: the molecule itself; test: SEC-MALS; 100 ug purified Strep-tagged PfPdx1 on Superdex 200 10/30 with static light scattering (miniDAWN Tristar); 100 mM Tris-HCl pH 8.0, 150 mM NaCl, no amino acid added
[2] = target: the molecule itself; test: SEC-MALS; as a2, with 10 mM glutamine in the elution buffer
[3] = target: B3; test: cell-based or functional assay
PfPdx1 D26A = PfPdx1 D26A (P. falciparum, UniProt C6KT50 1-301, D26A); test: cell-based or functional assay
PfPdx1 K83A = PfPdx1 K83A (P. falciparum, UniProt C6KT50 1-301, K83A); test: cell-based or functional assay
[4] = target: PfPdx1 ERR (E136A/R139A/R140A) triple mutant (P. falciparum, UniProt C6KT50 1-301, E136 to alanine | R139 to alanine | R140 to alanine); test: cell-based or functional assay
PfPdx1 K151A = target: B2; test: cell-based or functional assay

Binder: B1
- stoichiometry N [1]: 12

Binder: B2
- stoichiometry N [1]: 6

Binder: B3
- stoichiometry N [2]: 12
- stoichiometry N [1]: 6

Binder: B4
- glutaminase activity of PfPdx2 mixed equimolar with the PfPdx1 variant [3]: 274 mU mg^−1
- glutaminase activity of PfPdx2 mixed equimolar with the PfPdx1 variant (PfPdx1 D26A): 285 mU mg^−1
- glutaminase activity of PfPdx2 mixed equimolar with the PfPdx1 variant (PfPdx1 K83A): 291 mU mg^−1
- glutaminase activity of PfPdx2 mixed equimolar with the PfPdx1 variant [4]: 286 mU mg^−1
- glutaminase activity of PfPdx2 mixed equimolar with the PfPdx1 variant (PfPdx1 K151A): 251 mU mg^−1
